Measured values taken from PMC4990422, “Coupling between the DEAD-box RNA helicases Ded1p and eIF4A” (eLife, 2016).

Experiments:
eIF4G [1] = biological target: T1, eIF4G (S. cerevisiae, UniProt P39935 1-952; P07260 1-213); assay: global fit of RNA unwinding time courses to a thermodynamic model; K1/2 of a binding step calculated with the model of Figure 4A; step without RNA, ATP bound to eIF4A; settings: both partners purified
T1 construct: eIF4G1, scaffolding protein of translation initiation, S. cerevisiae; present in the preparations of eIF4G; the model treats G as one unit; also called eIF4G1; S•Tag-eIF4G; source: recombinant, expression and purification previously described (Hilliker et al., 2011)
T1 sequence (looked up) 1: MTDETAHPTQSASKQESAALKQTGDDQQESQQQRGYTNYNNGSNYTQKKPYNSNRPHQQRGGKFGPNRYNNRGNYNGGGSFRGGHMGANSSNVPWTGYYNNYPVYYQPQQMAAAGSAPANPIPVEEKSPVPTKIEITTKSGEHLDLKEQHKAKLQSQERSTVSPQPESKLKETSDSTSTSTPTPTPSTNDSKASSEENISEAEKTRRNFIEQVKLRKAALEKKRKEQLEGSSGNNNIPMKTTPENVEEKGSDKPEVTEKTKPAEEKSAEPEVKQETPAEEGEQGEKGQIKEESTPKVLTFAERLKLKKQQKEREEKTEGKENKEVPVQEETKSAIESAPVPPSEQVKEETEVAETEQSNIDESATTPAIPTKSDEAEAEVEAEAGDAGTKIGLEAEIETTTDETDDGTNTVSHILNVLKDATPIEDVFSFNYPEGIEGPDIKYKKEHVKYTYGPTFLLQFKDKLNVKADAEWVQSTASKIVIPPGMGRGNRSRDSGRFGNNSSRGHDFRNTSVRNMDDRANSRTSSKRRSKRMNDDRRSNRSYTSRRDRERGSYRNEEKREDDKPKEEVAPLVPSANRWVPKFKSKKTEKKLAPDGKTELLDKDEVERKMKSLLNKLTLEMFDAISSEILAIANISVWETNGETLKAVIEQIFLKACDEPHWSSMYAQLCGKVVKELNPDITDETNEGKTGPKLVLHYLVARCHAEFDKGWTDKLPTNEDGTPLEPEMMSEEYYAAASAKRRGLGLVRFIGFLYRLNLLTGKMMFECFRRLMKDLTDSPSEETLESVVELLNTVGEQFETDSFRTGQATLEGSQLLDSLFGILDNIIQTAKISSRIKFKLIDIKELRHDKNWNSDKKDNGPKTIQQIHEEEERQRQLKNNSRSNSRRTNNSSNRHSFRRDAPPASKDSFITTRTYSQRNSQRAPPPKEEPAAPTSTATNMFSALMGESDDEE
T1 sequence (looked up) 2: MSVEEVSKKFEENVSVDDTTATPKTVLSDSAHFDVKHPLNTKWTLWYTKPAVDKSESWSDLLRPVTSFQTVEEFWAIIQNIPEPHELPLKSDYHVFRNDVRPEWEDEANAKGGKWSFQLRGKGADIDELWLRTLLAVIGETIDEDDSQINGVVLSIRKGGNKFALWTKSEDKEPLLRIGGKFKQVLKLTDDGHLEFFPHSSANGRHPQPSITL

Ded1p-eIF4G complex [2] = biological target: T2, Ded1p-eIF4G complex (S. cerevisiae, UniProt P06634 1-604; P39935 1-952; P07260 1-213); assay: as above; settings: both partners purified
T2 construct: Ded1p, S. cerevisiae, wild type, as Wm1; eIF4G1, S. cerevisiae, as in Wm3; eIF4E, S. cerevisiae, as in Wm3; present in the preparations of eIF4G; State of the thermodynamic model; also called DG; DTG; source: formed from the purified recombinant proteins; copies: + +
T2 sequence (P06634 whole entry, one chain of several): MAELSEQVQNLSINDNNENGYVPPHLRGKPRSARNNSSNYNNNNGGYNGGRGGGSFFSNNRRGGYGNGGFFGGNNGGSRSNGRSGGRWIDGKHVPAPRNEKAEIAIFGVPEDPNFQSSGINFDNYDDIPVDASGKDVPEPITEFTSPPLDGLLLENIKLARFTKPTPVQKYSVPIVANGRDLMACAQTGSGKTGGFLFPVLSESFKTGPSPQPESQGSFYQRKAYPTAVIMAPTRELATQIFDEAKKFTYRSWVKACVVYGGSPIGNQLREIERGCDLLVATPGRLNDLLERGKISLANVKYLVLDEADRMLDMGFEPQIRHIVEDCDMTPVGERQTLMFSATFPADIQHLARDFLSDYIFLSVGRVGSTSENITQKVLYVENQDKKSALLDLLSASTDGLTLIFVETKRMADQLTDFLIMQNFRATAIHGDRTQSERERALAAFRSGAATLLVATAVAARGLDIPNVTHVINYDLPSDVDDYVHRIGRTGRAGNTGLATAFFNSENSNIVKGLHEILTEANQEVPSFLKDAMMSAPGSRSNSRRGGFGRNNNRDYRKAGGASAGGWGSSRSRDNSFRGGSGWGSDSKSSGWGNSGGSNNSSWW

[3] = biological target: Ded1p (wild type, N-terminal His6-tag) (S. cerevisiae), P06634; assay: cross-linking; formaldehyde 1% (v/v), 30 min, room temperature; Ded1p 0.3 µM, eIF4A 2 µM or as indicated, RNA 2 µM (16 bp, 25 nt 3'-overhang), 0.5 mM ADPNP-MgCl2, unwinding buffer; Western blot with α-Ded1p; settings: remark: other sources report otherwise
Ded1p (wild type, N-terminal His6-tag) (S. cerevisiae), P06634, sequence (P06634 whole entry): as the sequence (P06634 whole entry, one chain of several) above

eIF4G [4] = biological target: T1, eIF4G; assay: global fit of RNA unwinding time courses to a thermodynamic model; K1/2 of a binding step calculated with the model of Figure 4A; RNA bound to the target before the step, no ATP; settings: both partners purified
Ded1p-eIF4G complex [5] = biological target: T2, Ded1p-eIF4G complex; assay: as above; settings: both partners purified
Ded1p-eIF4G complex [6] = biological target: T2, Ded1p-eIF4G complex; assay: global fit of RNA unwinding time courses to a thermodynamic model; K1/2 of a binding step calculated with the model of Figure 4A; RNA bound to the binder before the step, ATP bound to Ded1p and to eIF4A; settings: both partners purified
eIF4G [7] = biological target: T1, eIF4G; assay: global fit of RNA unwinding time courses to a thermodynamic model; K1/2 of a binding step calculated with the model of Figure 4A; RNA bound to the target before the step, ATP bound to eIF4A; settings: both partners purified
Ded1p-eIF4G complex [8] = biological target: T2, Ded1p-eIF4G complex; assay: as above; settings: both partners purified
Ded1p-eIF4G complex [9] = biological target: T2, Ded1p-eIF4G complex; assay: global fit of RNA unwinding time courses to a thermodynamic model; K1/2 of a binding step calculated with the model of Figure 4A; RNA bound to the binder before the step, ATP bound to Ded1p; settings: both partners purified
eIF4G [10] = biological target: T1, eIF4G; assay: global fit of RNA unwinding time courses to a thermodynamic model; K1/2 of a binding step calculated with the model of Figure 4A; RNA bound to the binder before the step, ATP bound to eIF4A; settings: both partners purified

B1: eIF4A (enzyme, S. cerevisiae, UniProt P10081 1-395, looked up)
chain: MSEGITDIEESQIQTNYDKVVYKFDDMELDENLLRGVFGYGFEEPSAIQQRAIMPIIEGHDVLAQAQSGTGKTGTFSIAALQRIDTSVKAPQALMLAPTRELALQIQKVVMALAFHMDIKVHACIGGTSFVEDAEGLRDAQIVVGTPGRVFDNIQRRRFRTDKIKMFILDEADEMLSSGFKEQIYQIFTLLPPTTQVVLLSATMPNDVLEVTTKFMRNPVRILVKKDELTLEGIKQFYVNVEEEEYKYECLTDLYDSISVTQAVIFCNTRRKVEELTTKLRNDKFTVSAIYSDLPQQERDTIMKEFRSGSSRILISTDLLARGIDVQQVSLVINYDLPANKENYIHRIGRGGRFGRKGVAINFVTNEDVGAMRELEKFYSTQIEELPSDIATLLN
notes: eIF4A, DEAD-box RNA helicase, S. cerevisiae, wild type; also called wild-type yeast eIF4A; source: recombinant, purified as described (Hilliker et al., 2011)
Kd (eIF4G [1]): 1000 nM | Kd (Ded1p-eIF4G complex [2]): 0.28 nM | stoichiometry N [3]: 1 | Kd (eIF4G [4]): 1060 nM | Kd (Ded1p-eIF4G complex [5]): 7 nM | Kd (Ded1p-eIF4G complex [6]): 0.013 nM | Kd (eIF4G [7]): 2100 nM | Kd (Ded1p-eIF4G complex [8]): 14 nM | Kd (Ded1p-eIF4G complex [9]): 0.006 nM | Kd (eIF4G [10]): 49 nM
